Measurements as given in paper PMC3907276 (Molecular Biology of the Cell, 2014).

Target: T1, Vph1NT-FLAG (first 406 amino acids of Vph1p with C-terminal FLAG) (S. cerevisiae, UniProt P32563 1-406)
T1 sequence (looked up): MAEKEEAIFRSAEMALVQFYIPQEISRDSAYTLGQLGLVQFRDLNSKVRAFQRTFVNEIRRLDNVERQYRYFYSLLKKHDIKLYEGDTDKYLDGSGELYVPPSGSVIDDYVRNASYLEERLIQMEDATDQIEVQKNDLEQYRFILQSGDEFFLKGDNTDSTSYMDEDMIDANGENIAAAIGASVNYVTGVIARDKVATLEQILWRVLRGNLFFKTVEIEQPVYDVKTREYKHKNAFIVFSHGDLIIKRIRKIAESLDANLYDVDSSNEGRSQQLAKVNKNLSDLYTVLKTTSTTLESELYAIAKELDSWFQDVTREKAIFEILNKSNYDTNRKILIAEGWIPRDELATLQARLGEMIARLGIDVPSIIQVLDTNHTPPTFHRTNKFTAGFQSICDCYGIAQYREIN
Assay: pull-down

- binding result: binds
B1: GST-Rav1(840–1125) (domain or fragment, S. cerevisiae, UniProt P47104 840-1125, looked up)
chain: LTEQLTKTTLPYLTRHQQITLITVIEAVDEVTKNENIVDYNGVRFLLGVKLFLSHKNIQKSILMRDVSWALHSDNKEILLSSIDRHITSWNRAREYRIAYWIKEQDLVKKFEDIAKYEFSKDDKRDPSRCAIFYLALKKKQILLSLWKMAIGHPEQQKMVRFISNDFTVPRWRTAALKNAFVLLSKHRYMDAAVFFLLTDSLKDCVNVLCKQVHDMDLAIGVCRVYEGDNGPVLGELLTAQMLPETIKENDRWKASFIYWKLRKQEVAIKALLTAPIDLENNSSIV
